What was measured:
[1] = target: Leishmania braziliensis Hsp90 (LbHsp90) (Leishmania braziliensis)
[2] = target: Leishmania braziliensis Hsp90 (LbHsp90) (Leishmania braziliensis); experiment: ITC; LbAha1 (130–150 µM) injected into LbHsp90 (around 5.5 µM, as dimers); 40 mM HEPES pH 7.5, 5 mM KCl; 20°C; One Set of Sites fit; apparent enthalpy

Substance: Leishmania braziliensis Activator of Hsp90 ATPase 1 (LbAha1) (natural protein)
- stimulation of LbHsp90 ATPase activity (1 µM dimer, 0.5 mM ATP, 37°C) by increasing LbAha1 (0–20 µM in the methods, 0–16 µM in the legend); relative ATPase activity [1]: 10 fold
- Kd [2]: 1000 nM
- dH [2]: -18 kcal/mol
- stoichiometry N (LbAha1 per LbHsp90 dimer) [2]: 2

From paper PMC3691308
